Measured values reported in the supplement of paper PMC9170038.

Test system: K4 kissing-loop RNA reporter
Assay: apparent KD of K4 kissing-loop reporter; higher = weaker reporter binding
Conditions: Eterna round: R107
Experimental: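 RNA-MaP round R107: designed RNA switches with theophylline, tryptophan, arginine or FMN aptamers are transcribed on-chip within common flanks. They are titrated with a labelled K4 kissing-loop RNA reporter in RNA-MaP buffer (100 mM Tris pH 7.5, 80 mM KCl, 4 mM MgCl2), without ligand or with the indicated ligand. Median apparent KD per design.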

[1] = input ligand: theophylline 20 uM
[2] = input ligand: tryptophan 2.4 mM
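Note: bound reporter read as fluorescence of individual clusters on recovered sequencing chips by microscopy, with normalized cluster intensities fitted with a binding model.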

GUAUGUGGAAACACGUACUUGUAUCCUAGGAAGGAUAUGCGGAAACGCAGAAGGUCCACCGGCGAGUUUAUCCAGUGAUGUUGGA [Ex FMN A 10]
apparent KD of K4 kissing-loop reporter (input ligand: FMN 200 uM): 260 nM | apparent KD of K4 kissing-loop reporter (input ligand: arginine 13.2 mM): 275 nM | apparent KD of K4 kissing-loop reporter (input ligand: none): 274 nM | apparent KD of K4 kissing-loop reporter [1]: 318 nM | apparent KD of K4 kissing-loop reporter [2]: 248 nM

GUCCACACUGCAGGAUAUGGAGAAAUAGCGAGGGAGCUUGGAAGCACGCCUCUGGCAGUGAUGUUGCCAGAAGGGCGGUGCGGCG [Dilazasole]
apparent KD of K4 kissing-loop reporter (input ligand: FMN 200 uM): 106 nM | apparent KD of K4 kissing-loop reporter (input ligand: arginine 13.2 mM): 76.9 nM | apparent KD of K4 kissing-loop reporter (input ligand: none): 75.2 nM | apparent KD of K4 kissing-loop reporter [1]: 76.9 nM | apparent KD of K4 kissing-loop reporter [2]: 80.8 nM

GUCUUACUAUAGGAUACCAGCAUGCAAGGAGUGAUGUUCCCGUCAUAUGAGGAGUACCGCUGCCCUUGGCAGCCUCUUGUAAGUU [theeternabot_sameState_KL_Theo_B_1]
apparent KD of K4 kissing-loop reporter (input ligand: FMN 200 uM): 502 nM | apparent KD of K4 kissing-loop reporter (input ligand: arginine 13.2 mM): 253 nM | apparent KD of K4 kissing-loop reporter (input ligand: none): 353 nM | apparent KD of K4 kissing-loop reporter [1]: 411 nM | apparent KD of K4 kissing-loop reporter [2]: 316 nM

GUGCAAAGCACCGGCACGAGCAGCUUAAAGGAGGAUAUGACGAAAGUCAGAAGGUUUAGUGAUGUUAGGCCUUGCUUGAGUCGAA [#01 K4 FMN A Exclusion]
apparent KD of K4 kissing-loop reporter (input ligand: FMN 200 uM): 326 nM | apparent KD of K4 kissing-loop reporter (input ligand: arginine 13.2 mM): 265 nM | apparent KD of K4 kissing-loop reporter (input ligand: none): 282 nM | apparent KD of K4 kissing-loop reporter [1]: 413 nM | apparent KD of K4 kissing-loop reporter [2]: 270 nM

GUGCGGCUAGUGAUGUUGGUUGCGUGGGAAGGAGCGCAGAAACAUGCAGGUAGGUCGCCCACACCUCUGAAAGGAGGCUAAUUCA [Bisobi]
apparent KD of K4 kissing-loop reporter (input ligand: FMN 200 uM): 277 nM | apparent KD of K4 kissing-loop reporter (input ligand: arginine 13.2 mM): 128 nM | apparent KD of K4 kissing-loop reporter (input ligand: none): 163 nM | apparent KD of K4 kissing-loop reporter [1]: 213 nM | apparent KD of K4 kissing-loop reporter [2]: 134 nM

GUGGCACGAAAGUGCCACGCAUCCUCUGGCUAGGAUAUCUGGAAACAGAGAAGGAGCUCAUGAGUGAUGUUCAUCUAGAGGAUGC
apparent KD of K4 kissing-loop reporter (input ligand: FMN 200 uM): 827 nM | apparent KD of K4 kissing-loop reporter (input ligand: arginine 13.2 mM): 537 nM | apparent KD of K4 kissing-loop reporter (input ligand: none): 1010 nM | apparent KD of K4 kissing-loop reporter [1]: 978 nM | apparent KD of K4 kissing-loop reporter [2]: 947 nM

GUGGCGGGCCAAGGAUAUAUUUUGGAGUGAUGUUGUUCAUUUAUUUGAGCUAGUGAUGUUGGUCGAAUAGAAGGUGGCCCGCCAC [whbob_Ex_FMNB__2th220]
apparent KD of K4 kissing-loop reporter (input ligand: FMN 200 uM): 69.9 nM | apparent KD of K4 kissing-loop reporter (input ligand: arginine 13.2 mM): 27.2 nM | apparent KD of K4 kissing-loop reporter (input ligand: none): 52.8 nM | apparent KD of K4 kissing-loop reporter [1]: 44.7 nM | apparent KD of K4 kissing-loop reporter [2]: 45.8 nM

GUGUCCUAGUCGGCCGCCACUGGGUGCAAAAUAGAAGGAGCAUUGCACAUCAGUGAUGUUGAUGUCAGGACCGGGACUAGGGUGU [KL-SSTryp-B5 Brourdwalk1]
apparent KD of K4 kissing-loop reporter (input ligand: FMN 200 uM): 652 nM | apparent KD of K4 kissing-loop reporter (input ligand: arginine 13.2 mM): 406 nM | apparent KD of K4 kissing-loop reporter (input ligand: none): 597 nM | apparent KD of K4 kissing-loop reporter [1]: 563 nM | apparent KD of K4 kissing-loop reporter [2]: 439 nM

GUUACGCAUGGAAGGAGCGCGAAUUUAAUUAGUGAGUGAUGUUCACAUAAAAUAUAUAAUACGCAGGUAGGUCGCCAUGUGUAAC [Ex Arginine B K4 1]
apparent KD of K4 kissing-loop reporter (input ligand: FMN 200 uM): 80.8 nM | apparent KD of K4 kissing-loop reporter (input ligand: arginine 13.2 mM): 83.1 nM | apparent KD of K4 kissing-loop reporter (input ligand: none): 79.3 nM | apparent KD of K4 kissing-loop reporter [1]: 82.8 nM | apparent KD of K4 kissing-loop reporter [2]: 75 nM

GUUAUUCUAAACGCAGUAGUGAUGUUGAUGCGAGGACCGGUACGGCCGCCACUCGACUGCCGUCACGCCCGUCCAACAGCCGGAG [theeternabot_exclusion_KL_Trp_A_20]
apparent KD of K4 kissing-loop reporter (input ligand: FMN 200 uM): 431 nM | apparent KD of K4 kissing-loop reporter (input ligand: arginine 13.2 mM): 142 nM | apparent KD of K4 kissing-loop reporter (input ligand: none): 478 nM | apparent KD of K4 kissing-loop reporter [1]: 254 nM | apparent KD of K4 kissing-loop reporter [2]: 268 nM

UAAAAUAAAUAAUAGAGAUAAUUACUCGAAGGAGCGACGAAUUCGUCAGGUAGGUCGCGAGUGAUGUUCGCAAAUAUUAUCUCAU [AK3 Exc Arginine A]
apparent KD of K4 kissing-loop reporter (input ligand: FMN 200 uM): 212 nM | apparent KD of K4 kissing-loop reporter (input ligand: arginine 13.2 mM): 328 nM | apparent KD of K4 kissing-loop reporter (input ligand: none): 295 nM | apparent KD of K4 kissing-loop reporter [1]: 345 nM | apparent KD of K4 kissing-loop reporter [2]: 261 nM

UAAAUCACACGAGAUACCAGCCAAACCGAACUUGAGCACUAUAGUGAUGUUAUAUUGCGAGGCCCUUGGCAGCUCAAUAGAACAA [theeternabot_sameState_KL_Theo_B_11]
apparent KD of K4 kissing-loop reporter (input ligand: FMN 200 uM): 213 nM | apparent KD of K4 kissing-loop reporter (input ligand: arginine 13.2 mM): 174 nM | apparent KD of K4 kissing-loop reporter (input ligand: none): 190 nM | apparent KD of K4 kissing-loop reporter [1]: 145 nM | apparent KD of K4 kissing-loop reporter [2]: 182 nM

UAACGCUGACAGCAACAAUUCGGGCCUGAUACCAGCAAUUUUUCAUGCCCUUGGCAGCAGAGUGAUGUUUUCUGUCUAUUUAGUC [theeternabot_exclusion_KL_Theo_A_23]
apparent KD of K4 kissing-loop reporter (input ligand: FMN 200 uM): 628 nM | apparent KD of K4 kissing-loop reporter (input ligand: arginine 13.2 mM): 723 nM | apparent KD of K4 kissing-loop reporter (input ligand: none): 864 nM | apparent KD of K4 kissing-loop reporter [1]: 700 nM | apparent KD of K4 kissing-loop reporter [2]: 520 nM

UAACUCUUGCAGUGAUGUUGCAAGUAUGCUCAGGAUAUCAGGAAACUGAGAAGGGAGUUUCCUGAGCUUCUGCAAGAGCUCAGAA [KL-SSFMN-A6]
apparent KD of K4 kissing-loop reporter (input ligand: FMN 200 uM): 618 nM | apparent KD of K4 kissing-loop reporter (input ligand: arginine 13.2 mM): 408 nM | apparent KD of K4 kissing-loop reporter (input ligand: none): 547 nM | apparent KD of K4 kissing-loop reporter [1]: 375 nM | apparent KD of K4 kissing-loop reporter [2]: 382 nM

UAAGAAUAAGAUGCAGUGAUGUUGCAUCUACGAGGACCGGUACGGCCGCCACUCGAGGUCCUCGAACUGCAUCAGAGGACAAUAA [(H,1)-(H,2)-(Trp1)-(Trp2)-(T)'-(H)'-(T)'']
apparent KD of K4 kissing-loop reporter (input ligand: FMN 200 uM): 253 nM | apparent KD of K4 kissing-loop reporter (input ligand: arginine 13.2 mM): 184 nM | apparent KD of K4 kissing-loop reporter (input ligand: none): 286 nM | apparent KD of K4 kissing-loop reporter [1]: 390 nM | apparent KD of K4 kissing-loop reporter [2]: 300 nM

UAAGAAUAAGUAGCAGUGAUGUUGCUACUACGAGGACCGGUACGGCCGCCACUCGAGCCGUACCAUAACAUCACUGAGGUACGAA [(H1)-(H2)-(Trp1)-(Trp2)-(T)'-(H)'-(T)'']
apparent KD of K4 kissing-loop reporter (input ligand: FMN 200 uM): 231 nM | apparent KD of K4 kissing-loop reporter (input ligand: arginine 13.2 mM): 175 nM | apparent KD of K4 kissing-loop reporter (input ligand: none): 264 nM | apparent KD of K4 kissing-loop reporter [1]: 292 nM | apparent KD of K4 kissing-loop reporter [2]: 272 nM

UAAGAAUAGCAUGCAGUGAUGUUGCAUGUCCGAGGACCGGUACGGCCGCCACUCGAGUCCUCGAACAUGCACCGAGGAAUAACAA [#19 K4 Tryptophan A Same State]
apparent KD of K4 kissing-loop reporter (input ligand: FMN 200 uM): 108 nM | apparent KD of K4 kissing-loop reporter (input ligand: arginine 13.2 mM): 79.6 nM | apparent KD of K4 kissing-loop reporter (input ligand: none): 109 nM | apparent KD of K4 kissing-loop reporter [1]: 107 nM | apparent KD of K4 kissing-loop reporter [2]: 124 nM

UAAUAAAUUCCAGCGAUAUCGCUCUUCGAAGGAGCGGACGAAAGUCCAGGUAGGUCGCGGAGAGUGAUGUUCUUUGCGGCGCUGG [whbob_Ex_Arginine_A_2t133]
apparent KD of K4 kissing-loop reporter (input ligand: FMN 200 uM): 450 nM | apparent KD of K4 kissing-loop reporter (input ligand: arginine 13.2 mM): 177 nM | apparent KD of K4 kissing-loop reporter (input ligand: none): 356 nM | apparent KD of K4 kissing-loop reporter [1]: 298 nM | apparent KD of K4 kissing-loop reporter [2]: 266 nM

UAAUCACUCGAACUUGCAACUCGAGUGGAACGAGGACCGGUACGGCCGCCACUCGAUAACUUGCAGUGAUGUUGCAAGUAAGAAU [(T)''-(K)'-(T)'-(T1)-(T2)-(K1)-(K2)_Design8]
apparent KD of K4 kissing-loop reporter (input ligand: FMN 200 uM): 333 nM | apparent KD of K4 kissing-loop reporter (input ligand: arginine 13.2 mM): 341 nM | apparent KD of K4 kissing-loop reporter (input ligand: none): 411 nM | apparent KD of K4 kissing-loop reporter [1]: 411 nM | apparent KD of K4 kissing-loop reporter [2]: 219 nM

UAAUGUGGCACAGGAUAUACUGAUUGGAGUGAUGUUCCAAACAUGAACAAGAGACUUUUACAAGAAGUAGAAGGGUGUUAGAUAU [Exclusion FMN B GF 19]
apparent KD of K4 kissing-loop reporter (input ligand: FMN 200 uM): 269 nM | apparent KD of K4 kissing-loop reporter (input ligand: arginine 13.2 mM): 265 nM | apparent KD of K4 kissing-loop reporter (input ligand: none): 223 nM | apparent KD of K4 kissing-loop reporter [1]: 295 nM | apparent KD of K4 kissing-loop reporter [2]: 223 nM

UACAAACGUAGUGAUGUUACGUACUCUGAUACCAGACAACUCUAAGUCCCUUGGCAGCAGUCACUUAGCUUAUUAUUUUCUCAAA [JR_Nu_ExcTheophyA_Sub026]
apparent KD of K4 kissing-loop reporter (input ligand: FMN 200 uM): 106 nM | apparent KD of K4 kissing-loop reporter (input ligand: arginine 13.2 mM): 134 nM | apparent KD of K4 kissing-loop reporter (input ligand: none): 116 nM | apparent KD of K4 kissing-loop reporter [1]: 130 nM | apparent KD of K4 kissing-loop reporter [2]: 103 nM
